Changes are numbered by the printed parent chain.
T1: KGF (hKGF) (Homo sapiens, UniProt P21781 P21781:32-194)
T1 sequence: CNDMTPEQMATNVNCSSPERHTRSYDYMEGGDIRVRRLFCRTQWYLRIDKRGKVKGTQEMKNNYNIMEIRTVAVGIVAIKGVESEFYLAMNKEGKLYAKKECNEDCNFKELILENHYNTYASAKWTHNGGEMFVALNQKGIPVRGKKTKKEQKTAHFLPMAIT

B1: 1N (ssRNA)
RNA: GGGAGGACGAUGCGGGAAGGGACGAUAAAGAGGAAUCGAACAACAAGUGGCUGGCCAGACGACUCGCCCGA
modifications: 2'-NH2 pyrimidines
B2: 29N (ssRNA)
RNA: GGGAGGACGAUGCGGGAGGGGAGAAGAAUGCAGGAAACAGCGAAAUGCGUGUGGCCAGACGACUCGCCCGA
modifications: 2'-NH2 pyrimidines
B3: 37F (ssRNA)
RNA: GGGAGGACGAUGCGGGCCCGAUCUACUGCAUUACCGAAACGAUUUCCCCACUGUGCAGACGACUCGCCCGA
modifications: 2'-F pyrimidines
B4: 45F (ssRNA)
RNA: GGGAGGACGAUGCGGGUCGUAUUCAUCUCCUUGUUCUGUUUCGUUGCACCUGGCCCAGACGACUCGCCCGA
modifications: 2'-F pyrimidines
B5: 42F (ssRNA)
RNA: GGGAGGACGAUGCGGCGACACAAUAGCCUUUGAUCCCAUGAUGGCUCGCCGUGCCCAGACGACUCGCCCGA
modifications: 2'-F pyrimidines
B6: 27F (ssRNA)
RNA: GGGAGGACGAUGCGGCAGUCUGGAUCUCUAUUGGAAUUUAGUCCUCAACUGUGCCCCAGACGACUCGCCCGA
modifications: 2'-F pyrimidines
B7: 10F (ssRNA)
RNA: GGGAGGACGAUGCGGGACCAGAUGGCGGAUUUUUCAGCAAUCCUCCCCCGCUGCCCAGACGACUCGCCCGA
modifications: 2'-F pyrimidines
B8: 29F (ssRNA)
RNA: GGGAGGACGAUGCGGGGACUUCAACUAAGUCCUCAUUUGCCUCGCUCCUCGUGCCCAGACGACUCGCCCGA
modifications: 2'-F pyrimidines
B9: 43N (ssRNA)
RNA: GGGAGGACGAUGCGGGAAGUGGAUAGAACAGUCAGAAAUGUAAGCGUGAGGUGCAGACGACUCGCCCGA
modifications: 2'-NH2 pyrimidines
B10: 41F (ssRNA)
RNA: GGGAGGACGAUGCGGGGACUUUGACAGGCAUUGAUUUCGACCUGUUCCCCGUGGCCAGACGACUCGCCCGA
modifications: 2'-F pyrimidines
B11: 49F (ssRNA)
RNA: B10 RNA with C42G
modifications: 2'-F pyrimidines
B12: 35F (ssRNA)
RNA: GGGAGGACGAUGCGGCGAAAUUAGCUUCUUAUGACUCACGUUUCCUUGCCGCCCCAGACGACUCGCCCGA
modifications: 2'-F pyrimidines
B13: 42N (ssRNA)
RNA: GGGAGGACGAUGCGGGGAGACGUAGACGGGAACAUAGAACGAACAUCAACGCGGCCAGACGACUCGCCCGA
modifications: 2'-NH2 pyrimidines
B14: 6N (ssRNA)
RNA: GGGAGGACGAUGCGGGCAGGGAGCAAUGAACUCAAGUCAAGCCGGUGCACGUGGGCAGACGACUCGCCCGA
modifications: 2'-NH2 pyrimidines
B15: 2N (ssRNA)
RNA: GGGAGGACGAUGCGGGCGGGAAGGUCCGAAGACCGGCGAAAGGAACGAGAUUGCCCAGACGACUCGCCCGA
modifications: 2'-NH2 pyrimidines
B16: T31 (ssRNA)
RNA: GACGAUGCGGUGGCCCAAUUCUAUUCUCCAUCGUAUC
modifications: 2'-F pyrimidines
B17: T32 (ssRNA)
RNA: GGACGAUGCGGUGGCCCAAUUCUAUUCUCCAUCGUAUC
modifications: 2'-F pyrimidines
B18: T36 (ssRNA)
RNA: GGGAGGACGAUG
modifications: 2'-F pyrimidines
B19: T7 (ssRNA)
RNA: GGGAGGACGAUGCGGUGGUCUCCCAAUUAACUCCAUCGUAUC
modifications: 2'-F pyrimidines
B20: T10 (ssRNA)
RNA: B19 RNA with A29U, A30U
modifications: 2'-F pyrimidines
B21: T37 (ssRNA)
RNA: B19 RNA with A29C, A30U
modifications: 2'-F pyrimidines
B22: T20 (ssRNA)
RNA: B19 RNA with A29C, A30U, C31A
modifications: 2'-F pyrimidines
B23: T19 (ssRNA)
RNA: GGGAGGACGAUGCGGUGGUCUCCCAAUUCUACUCCAUCGUAUC
modifications: 2'-F pyrimidines
B24: T34 (ssRNA)
RNA: GAUGCGGUGGUCUCCCAAUUCUAUUCUCCAUCGUAUC
modifications: 2'-F pyrimidines
B25: T14 (ssRNA)
RNA: GAGGACGAUGCGGUGGUCUCCCAAUUCUAUUCUCCAUCGUAUC
modifications: 2'-F pyrimidines
B26: T12 (ssRNA)
RNA: GGAGGACGAUGCGGUGGUCUCCCAAUUCUAUUCUCCAUCGUAUC
modifications: 2'-F pyrimidines
B27: T30 (ssRNA)
RNA: GGGACGAUGCGGUGGCCCAAUUCUAUUCUCCAUCGUAUC
modifications: 2'-F pyrimidines
B28: T15 (ssRNA)
RNA: GAGGACGAUGCGGUGGUCUCAAUUCUAUUCUCCAUCGUAUC
modifications: 2'-F pyrimidines
B29: T29 (ssRNA)
RNA: B28 RNA with A2G, U17C, U19C
modifications: 2'-F pyrimidines
B30: T33 (ssRNA)
RNA: GAUGCGGUGGCCCAAUUCUAUUCUCCAUCGUAUC
modifications: 2'-F pyrimidines
B31: T41 (ssRNA)
RNA: GGGAGGACGAUGCGGGUCUCCCAAUUCUUCUCUCGUAUC
modifications: 2'-F pyrimidines
B32: T13 (ssRNA)
RNA: GGAGGACGAUGCGGUGGUCUCCAAUUCUAUUCUCCAUCGUAUC
modifications: 2'-F pyrimidines
B33: T39 (KGF truncate) (ssRNA)
RNA: GGGAGGACGAUGCGGUGUCUCCCAAUUCUUCUCAUCGUAUC
modifications: 2'-F pyrimidines
B34: T40 (ssRNA)
RNA: B33 RNA with U16G, A34C
modifications: 2'-F pyrimidines
B35: T3 (ssRNA)
RNA: GGGAGGACUGCGGUGGUCUCCCAAUUCUAAACUUUCUCCAUCGUA
modifications: 2'-F pyrimidines
B36: T35 (ssRNA)
RNA: GGUGGUCUCCCAAUUCUAUUCUCCAUCGUAUC
modifications: 2'-F pyrimidines
B37: T11 (ssRNA)
RNA: GGGAGGACGAUGCGGUGGUCUCCCAAUUCUACCAUCGUAUC
modifications: 2'-F pyrimidines

Each binder was assayed against T1, KGF (hKGF) (assay: filter; DPBS, 37 C). Conditions: tags: Upstate Biotechnology; label: 32P.
For B1, the Kd was 0.51 nM. B2 was tested, and the Kd was 0.43 nM. Work on B3 yielded a Kd of 0.46 nM. B4 was tested, and the Kd was 4.7 nM. In the case of B5, the Kd is reported as 0.9 nM. B6 gave a Kd of 1.52 nM. In the case of B7, the Kd is reported as 0.47 nM. B8 was tested, and the Kd was 3.24 nM. B9 was tested, and the Kd was 0.79 nM. For B10, the Kd was 1.44 nM. Binder B11 has a Kd of 1 nM. B12 was tested, and the Kd was 1.1 nM. B13 gave a Kd of 0.78 nM. In the case of B14, the Kd is reported as 0.71 nM.

Same assay, conditions: tags: Upstate Biotechnology; label: 32P; dumbbell (predicted)
Binder B15 has a Kd of 0.77 nM.

These binders were tested against T1, KGF (hKGF) (assay: filter; high -, low -). Conditions: tags: Upstate Biotechnology.
Method: In an effort to identify shorter KGF ligands that retained binding, the binding activity of various deletions of the shortest truncate of ligand 14F, namely 14F3′T were tested. Deletions were tested in all the structural elements of the proposed pseudoknot structure. RNA transcripts containing 2′F pyrimidines and 2′OH purines were obtained by in vitro transcription using synthetic DNA templates. The activity of each ligand is shown by scoring for both the high (H) and low (L) affinity component of the 14F3′T binding curve with +(active) or −(not active). Truncates T35 and T36 represent two complementary halves of 14F3′T molecule and were additionally tested as an equimolar mixture. The structural elements of the proposed pseudoknot structure are separated by (1) and are indicated by symbols S1 (stem 1), S2 (stem 2), L1 (loop 1) and L3 (loop 3). The proposed pseudoknot structure for 14F3′T is a non-H-type pseudoknot and lacks L2 (loop 2). The complementary sequences forming S1 (S1 and S1′) and S2 (S2 and S2′) are marked by single and double underlines respectfully. In the tabulated sequences, deleted bases were replaced with periods (.). […] Deletions in loop 3 (L3), however, were tolerated as long as one copy of the RRYY box remained intact. The shortest ligand that retained activity is T22 which is a 43-mer. In trying to obtain shorter ligands by truncating L3 further a mutant version of T22 (designated T22mu) was used where the last GC base pair of S1 was eliminated by a G to U mutation at position 6. The reasoning for this mutation was to enhance the flexibility of the double stranded region of this ligand by allowing an unpaired base between S1 and S2.
B16: no binding. B17: no binding. B18: no binding. B19: no binding. B20: no binding. B21: no binding. B22: no binding. B23: no binding. B24: no binding. B25: no binding. B26: no binding. B27: no binding. B28: no binding. B29: no binding. B30: no binding. B31: no binding. B32: no binding. B33: no binding. B34: no binding. B35: no binding. B36: no binding. B37: no binding.

What follows are binders tested against T1, KGF (hKGF) (assay: competition; PC-3 cells). Conditions: tags: Upstate Biotechnology.
Method: PC-3 cells were plated in 24-well plates at about 10⁵ cells per well. Following growth for […], the cells were serum starved for 24 hours, washed two times with 500 μl of cold DPBS, and then incubated with 500 μl binding buffer (BB1; DPBS, 0.5 mM MgCl₂, 0.2% BSA. 0.02% sodium azide) containing various concentrations of ¹²⁵I-labeled KGF ranging from 0 to 0.8 nM. Following 3-3.5 hour incubation at 4° C., the binding mixes were aspirated and the well-adhered cells were washed two times with 1 ml BB1 and once with 1 ml BB1 supplemented with 0.5M NaCl. The remaining bound labeled hKGF was solubilized in 600 μl 0.5% SDS/0.1M NaOH and counted in a gamma counter (Beckmann). Nonspecific binding was determined in the presence of 100 fold molar excess of unlabeled hKGF. For competition assays, the labeled hKGF was kept constant at […], and varying concentrations of competitor molecules were included in the binding reactions ranging from 0-1,000 nM. Binding curves were fitted to the equation: […]
A subset of these ligands was tested on the NIH3T3/FGFR-2. In determining the Ki values, it was assumed that 3T3 cells have 500,000 binding sites per cell and PC-3 cells have 5,000 binding sites per cell.
B15 showed an IC50 of 200 nM. B1 was tested, and the IC50 was 50 nM. B2 was tested, and the IC50 was 40 nM. B3 was tested, and the IC50 was 20 nM. For B7, the IC50 was 30 nM. In the case of B9, the IC50 is reported as 800 nM. B13 was tested, and the IC50 was 800 nM. B14 gave an IC50 of 80 nM.
